According to patent publication US20230212587A1, “Mutant Hydroxyphenylpyruvate Dioxygenase Polypeptide, Encoding Gene Thereof and Use Therefor” (Beijing Dabeinong Biotechnology Co., Ltd., priority 2019, published 2023):

Tested on: Arabidopsis thaliana T1 plants
Test: Topramezone tolerance of transgenic Arabidopsis thaliana T1 plants (pesticide damage grade by bleached leaf area, score, resistance evaluation)
Assay type: in vivo
Details: for Classification and statistics of pesticide damage grade Grade 0 / Classification and statistics of pesticide damage grade Grade 1 / Classification and statistics of pesticide damage grade Grade 2 / Classification and statistics of pesticide damage grade Grade 3 / Scores / Resistance evaluation: HPPDs from different species, 7 DAT; for Classification and statistics of pesticide damage grade Grade 0 / Classification and statistics of pesticide damage grade Grade 1 / Classification and statistics of pesticide damage grade Grade 2 / Classification and statistics of pesticide damage grade Grade 3: number of plants (of 16) in this grade; for Scores / score: score for pesticide damage 0-100; for tolerance to topramezone, in words: Arabidopsis thaliana T1 plants sprayed with topramezone; for Grade 0 / Grade 1 / Grade 2 / Grade 3 / score / Resistance Grade: non-372 position mutants; for Grade 0 / Grade 1 / Grade 2 / Grade 3: number of plants (of 20) in this grade
Source text: The Arabidopsisthaliana T1 plants into which the AsHPPDm-F372A-02 nucleotide sequence was introduced, Arabidopsis thaliana T1 plants into which the AsHPPD-02 nucleotide sequence was introduced and wild-type Arabidopsisthaliana plants (18 days after sowing) were sprayed with topramezone at four different concentrations, i.e., 25 g ai/ha (one-fold field concentration, 1×), 50 g ai/ha (two-fold field concentration, 2×), 100 g ai/ha (four-fold field concentration, 4×) and 0 g ai/ha (water, 0×) to determine the tolerance of Arabidopsisthaliana to the herbicide. The degree of damage caused by the herbicide was measured for each plant according to the proportion of bleached leaf area (the proportion of bleached leaf area=bleached leaf area/total leaf area×100%) 7 days after spraying (7 DAT): the case where there is basically no bleached phenotype is defined as grade 0, the case where the proportion of bleached leaf area is less than 50% is defined as grade 1,the case where the proportion of bleached leaf area is more than 50% is defined as grade 2, and the case where the proportion of bleached leaf area is 100% grade is defined as grade 3.
(§1) According to the method as described above in point 6 of Example 1, the aforementioned Arabidopsisthaliana T1 plants and wild-type Arabidopsisthaliana plants (18 days after sowing) were sprayed with topramezone at three different concentrations respectively, i.e., 25 g ai/ha (one-fold field concentration, 1×), 100 g ai/ha (four-fold field concentration, 4×) and 0 g ai/ha(water, 0×) to detect the tolerance of Arabidopsisthaliana to the herbicide.
as §1, with “1x),” for “1×),”, “4x)” for “4×)”, “ai/ha (water, 0x)” for “ai/ha(water, 0×)”
According to the method as described above in point 6 of Example 1, the above-mentioned Arabidopsisthaliana T1 plants, Arabidopsisthaliana T1 plants into which the AsHPPD-02 nucleotide sequence was introduced, Arabidopsisthaliana T1 plants into which the PfHPPD-02 nucleotide sequence was introduced, and wild-type Arabidopsisthaliana plants (18 days after sowing) were sprayed with topramezone at four different concentrations respectively, that is, 25 g ai/ha (one-fold field concentration, 1x), 50 g ai/ha (two-fold field concentration, 2x), 100 g ai/ha (four-fold field concentration, 4x) and 0 g ai/ha (water, Ox) to detect the herbicide tolerance of Arabidopsisthaliana.
According to the method as described in point 6 of Example 1, the above-mentioned Arabidopsisthaliana T1 plants and wild-type Arabidopsisthaliana plants (18 days after sowing) were sprayed with topramezone at two different concentrations respectively, that is, 25 g ai/ha (one-fold field concentration, 1x) and 100 g ai/ha (four-fold field concentration, 4x) to detect the herbicide tolerance of Arabidopsisthaliana,. […]

B1: CsHPPD-02: native Cucumis sativus HPPD, SEQ ID NO: 117 (protein, listed as Cucumis sativus)
chain: MGKEADFPRAPSEATDGGATASQSEFELQGFDNFIRTNPKSDRFKVKRFHHIEFWCTDATNVARRFSWGLGMQIVAKSDLSTGNMTHASYLLRSGHLCFLFTAPYSPSIAAAQNLTPASTASIPSFDHSVCRSFSGTHGFGARAIALEVEDAEIAFRTSVAHGAKPSCPPIVLENRAVLSEVHLYGDVVLRYISYKNPVSGDNGENKPDEWFLPKFEAMEETASFPLDFGIRRLDHAVGNVPELGPAVSYLKGFTGFHEFAEFTAEDVGTSESGLNSMVLANNEEMVLLPINEPVFGTKRKSQIQTYLEHNEGAGVQHLALMSEDIFRTLREMRKRSSVGGFEFMPSPPPTYYKNLKSRAGDVLTDEQIKECEELGILVDKDDQGTLLQIFTKPVGDRPTIFIEIIQRLGCMMKDEEGKAFQKGGCGGFGKGNFSELFKSIEEYEKTLEAKRVSE
modifications: CsHPPD Amino Acid Sequence
Classification and statistics of pesticide damage grade Grade 0 (topramezone 25 g ai/ha (1x)): 0
Classification and statistics of pesticide damage grade Grade 1 (topramezone 25 g ai/ha (1x)): 0
Classification and statistics of pesticide damage grade Grade 2 (topramezone 25 g ai/ha (1x)): 0
Classification and statistics of pesticide damage grade Grade 3 (topramezone 25 g ai/ha (1x)): 16
Classification and statistics of pesticide damage grade Grade 0 (topramezone 100 g ai/ha (4x)): 0
Classification and statistics of pesticide damage grade Grade 1 (topramezone 100 g ai/ha (4x)): 0
Classification and statistics of pesticide damage grade Grade 2 (topramezone 100 g ai/ha (4x)): 0
Classification and statistics of pesticide damage grade Grade 3 (topramezone 100 g ai/ha (4x)): 16
Scores (topramezone 25 g ai/ha (1x)): 100
Scores (topramezone 100 g ai/ha (4x)): 100
Resistance evaluation (topramezone 25 g ai/ha (1x)): non-resistant (non-resistant plants (scores 68-100))
Resistance evaluation (topramezone 100 g ai/ha (4x)): non-resistant (non-resistant plants (scores 68-100))

B2: NtHPPDm-F372A-02: Nicotiana tabacum HPPD mutant F372A, SEQ ID NO: 114 (protein)
chain: MGKLETVTTTSAAAADDSSELTTNFKLVGFKNFIRTNPRSDFFSVKSFHHIEFWCGDATNTARRFSWSLGMPIAAKSDLSTGNSVHASYLLRPVSGSLQFLFTAPYSPSISTPSSAAIPSFSTSTHRSFTTTHGLGVRAVALEVENAYTAFSASVSRGAKPMFEPVTIDEQVAMAEVHLYGDVVLRFVSYLKDADNLVFLPGFEAMDETASYKELDYGIRRLDHAVGNVPELGPVVDYIKRFTGFHEFAEFTAEDVGTAESGLNSMVLANNDETVLLPLNEPVYGTKRKSQIQTYLEHNEGAGVQHLALVTEDIFKTLTEMRKRSGVGGFEFMPSPPPTYYKNLKNRAGDVLSDEQILACEELGILVDRDDQGTLLQIATKPVGDRPTIFIEIIQRIGCMLKDGKGQVYQKGGCGGFGKGNFSELFRSIEEYEKTLEAKQANQVAAA
modifications: NtHPPDm-F372A Amino Acid Sequence
Classification and statistics of pesticide damage grade Grade 0 (topramezone 25 g ai/ha (1x)): 0
Classification and statistics of pesticide damage grade Grade 1 (topramezone 25 g ai/ha (1x)): 6
Classification and statistics of pesticide damage grade Grade 2 (topramezone 25 g ai/ha (1x)): 10
Classification and statistics of pesticide damage grade Grade 3 (topramezone 25 g ai/ha (1x)): 0
Classification and statistics of pesticide damage grade Grade 0 (topramezone 100 g ai/ha (4x)): 0
Classification and statistics of pesticide damage grade Grade 1 (topramezone 100 g ai/ha (4x)): 0
Classification and statistics of pesticide damage grade Grade 2 (topramezone 100 g ai/ha (4x)): 0
Classification and statistics of pesticide damage grade Grade 3 (topramezone 100 g ai/ha (4x)): 16
Scores (topramezone 25 g ai/ha (1x)): 54
Scores (topramezone 100 g ai/ha (4x)): 100
Resistance evaluation (topramezone 25 g ai/ha (1x)): poorly resistant (poorly resistant plants (scores 34-67))
Resistance evaluation (topramezone 100 g ai/ha (4x)): non-resistant (non-resistant plants (scores 68-100))

B3: AsHPPDm-Q284A: Avena sativa HPPD mutant Q284A, SEQ ID NO: 420 (protein)
chain: MPPTPATATGAAAAAVTPEHAARSFPRVVRVNPRSDRFPVLSFHHVELWCADAASAAGRFSFALGAPLAARSDLSTGNSAHASLLLRSGALAFLFTAPYAPPPQEAATAAATASIPSFSADAARTFAAAHGLAVRSVGVRVADAAEAFRVSVAGGARPAFAPADLGHGFGLAEVELYGDVVLRFVSYPDETDLPFLPGFERVSSPGAVDYGLTRFDHVVGNVPEMAPVIDYMKGFLGFHEFAEFTAEDVGTTESGLNSVVLANNSEAVLLPLNEPVHGTKRRSAIQTYLEYHGGPGVQHIALASNDVLRTLREMRARTPMGGFEFMAPPQAKYYEGVRRIAGDVLSEEQIKECQELGVLVDRDDQGVLLQIFTKPVGDRPTFFLEMIQRIGCMEKDEVGQEYQKGGCGGFGKGNFSELFKSIEDYEKSLEVKQSVVAQKS
modifications: AsHPPDm-Q284A Amino Acid Sequence
tolerance to topramezone, in words: no significant difference
Grade 0 (topramezone 25 g ai/ha (1x)): 0
Grade 1 (topramezone 25 g ai/ha (1x)): 2
Grade 2 (topramezone 25 g ai/ha (1x)): 16
Grade 3 (topramezone 25 g ai/ha (1x)): 2
Grade 0 (topramezone 100 g ai/ha (4x)): 0
Grade 1 (topramezone 100 g ai/ha (4x)): 0
Grade 2 (topramezone 100 g ai/ha (4x)): 5
Grade 3 (topramezone 100 g ai/ha (4x)): 15
score (topramezone 25 g ai/ha (1x)): 67
score (topramezone 100 g ai/ha (4x)): 92
Resistance Grade (topramezone 25 g ai/ha (1x)): poorly resistant (poorly resistant plants (scores 34-67))
Resistance Grade (topramezone 100 g ai/ha (4x)): non-resistant (non-resistant plants (scores 68-100))

B4: AsHPPDm-L359W: Avena sativa HPPD mutant L359W, SEQ ID NO: 422 (protein)
chain: MPPTPATATGAAAAAVTPEHAARSFPRVVRVNPRSDRFPVLSFHHVELWCADAASAAGRFSFALGAPLAARSDLSTGNSAHASLLLRSGALAFLFTAPYAPPPQEAATAAATASIPSFSADAARTFAAAHGLAVRSVGVRVADAAEAFRVSVAGGARPAFAPADLGHGFGLAEVELYGDVVLRFVSYPDETDLPFLPGFERVSSPGAVDYGLTRFDHVVGNVPEMAPVIDYMKGFLGFHEFAEFTAEDVGTTESGLNSVVLANNSEAVLLPLNEPVHGTKRRSQIQTYLEYHGGPGVQHIALASNDVLRTLREMRARTPMGGFEFMAPPQAKYYEGVRRIAGDVLSEEQIKECQELGVWVDRDDQGVLLQIFTKPVGDRPTFFLEMIQRIGCMEKDEVGQEYQKGGCGGFGKGNFSELFKSIEDYEKSLEVKQSVVAQKS
modifications: AsHPPDm-L359W Amino Acid Sequence
tolerance to topramezone, in words: no significant difference
Grade 0 (topramezone 25 g ai/ha (1x)): 0
Grade 1 (topramezone 25 g ai/ha (1x)): 0
Grade 2 (topramezone 25 g ai/ha (1x)): 2
Grade 3 (topramezone 25 g ai/ha (1x)): 18
Grade 0 (topramezone 100 g ai/ha (4x)): 0
Grade 1 (topramezone 100 g ai/ha (4x)): 0
Grade 2 (topramezone 100 g ai/ha (4x)): 0
Grade 3 (topramezone 100 g ai/ha (4x)): 20
score (topramezone 25 g ai/ha (1x)): 97
score (topramezone 100 g ai/ha (4x)): 100
Resistance Grade (topramezone 25 g ai/ha (1x)): non-resistant (non-resistant plants (scores 68-100))
Resistance Grade (topramezone 100 g ai/ha (4x)): non-resistant (non-resistant plants (scores 68-100))

B5: AsHPPDm-F415A: Avena sativa HPPD mutant F415A, SEQ ID NO: 424 (protein)
chain: MPPTPATATGAAAAAVTPEHAARSFPRVVRVNPRSDRFPVLSFHHVELWCADAASAAGRFSFALGAPLAARSDLSTGNSAHASLLLRSGALAFLFTAPYAPPPQEAATAAATASIPSFSADAARTFAAAHGLAVRSVGVRVADAAEAFRVSVAGGARPAFAPADLGHGFGLAEVELYGDVVLRFVSYPDETDLPFLPGFERVSSPGAVDYGLTRFDHVVGNVPEMAPVIDYMKGFLGFHEFAEFTAEDVGTTESGLNSVVLANNSEAVLLPLNEPVHGTKRRSQIQTYLEYHGGPGVQHIALASNDVLRTLREMRARTPMGGFEFMAPPQAKYYEGVRRIAGDVLSEEQIKECQELGVLVDRDDQGVLLQIFTKPVGDRPTFFLEMIQRIGCMEKDEVGQEYQKGGCGGFGKGNASELFKSIEDYEKSLEVKQSVVAQKS
modifications: AsHPPDm-F415A Amino Acid Sequence
tolerance to topramezone, in words: no significant difference
Grade 0 (topramezone 25 g ai/ha (1x)): 0
Grade 1 (topramezone 25 g ai/ha (1x)): 6
Grade 2 (topramezone 25 g ai/ha (1x)): 12
Grade 3 (topramezone 25 g ai/ha (1x)): 2
Grade 0 (topramezone 100 g ai/ha (4x)): 0
Grade 1 (topramezone 100 g ai/ha (4x)): 0
Grade 2 (topramezone 100 g ai/ha (4x)): 0
Grade 3 (topramezone 100 g ai/ha (4x)): 20
score (topramezone 25 g ai/ha (1x)): 60
score (topramezone 100 g ai/ha (4x)): 100
Resistance Grade (topramezone 25 g ai/ha (1x)): poorly resistant (poorly resistant plants (scores 34-67))
Resistance Grade (topramezone 100 g ai/ha (4x)): non-resistant (non-resistant plants (scores 68-100))
